Experimental data from US11472877 (Alector, dated 2022).
Positions count from the first letter of the chain named.

B1: T1-43 (antibody, IgG1, V domains shown)
VH: QVQLVQSGAEVKKPGASVKVSCKASGYTFTSYYMHWVRQAPGQGLEWMGIINPSGGSTSYAQKFQGRVTMTRDTSTSTVYMELSSLRSEDTAVYYCAREAGNYYDIESAFDIWGQGTMVTVSS
VL: not shown
notes: huIgG1; also called TI-43; ADI-19117
B2: T1-40 (antibody, IgG1, V domains shown)
VH: EVQLVESGGGLVKPGGSLRLSCAASGFTFSSYSMNWVRQAPGKGLEWVSSISSSSSYIYYADSVKGRFTISRDNAKNSLYLQMNSLRAEDTAVYYCARTRIDDSFDIWGQGTMVTVSS
VL: not shown
notes: huIgG1; also called TI-40; ADI-19114
B3: T1-42 (antibody, IgG1, V domains shown)
VH: QVQLVESGGGVVQPGRSLRLSCAASGFTFSSYGMHWVRQAPGKGLEWVAVIWYDGSNKGYADSVKGRFTISRDNSKNTLYLQMNSLRAEDTAVYYCARELMVTSGGWLYGMDVWGQGTTVTVSS
VL: EIVMTQSPATLSVSPGERATLSCRASQSVSSNLAWYQQKPGQAPRLLIYGASTRATGIPARFSGSGSGTEFTLTISSLQSEDFAVYYCQQYNVHPPRTFGGGTKVEIK
notes: huIgG1; also called TI-42; ADI-19116
B4: T1-41 (antibody, IgG1, V domains shown)
VH: not shown
VL: DIQLTQSPSSVSASVGDRVTITCRASQDISSWLAWYQQKPGKAPKLLIYAASSLQSGVPSRFSGSGSGTDFTLTISSLQPEDFATYYCQQAVIHPPYTFGGGTKVEIK
notes: huIgG1; also called TI-41; ADI-19115
B5: T1-38 (antibody, IgG1, V domains shown)
VH: QVQLVESGGGVVQPGRSLRLSCAASGLTFSSYGMHWVRQAPGKGLEWVAVISYDGSNKYYADSVKGRFTISRDNSKNTLYLQMNSLRAEDTAVYYCARERGTYYYASGWANWGQGTLVTVSS
VL: not shown
notes: huIgG1; also called TI-38; ADI-19112
B6: T1-35 (antibody, IgG1, V domains shown)
VH: QVQLVESGGGVVQPGRSLRLSCAASGFTFSSYGMHWVRQAPGKGLEWVAVISYDGSNKYYADSVKGRFTISRDNSKNTLYLQMNSLRAEDTAVYYCARPDYYSSRGVFDIWGQGTMVTVSS
VL: not shown
notes: huIgG1; also called TI-35; ADI-19109
B7: T1-36 (antibody, IgG1, V domains shown)
VH: B6 VH
VL: not shown
notes: huIgG1; also called TI-36; ADI-19110
B8: T1-44 (antibody, IgG1, V domains shown)
VH: QVQLVQSGAEVKKPGASVKVSCKASGYTFTSYYMHWVRQAPGQGLEWMGVINPSGGSTSYAQKFQGRVTMTRDTSTSTVYMELSSLRSEDTAVYYCAREGSGYDESMDVWGQGTTVTVSS
VL: not shown
notes: huIgG1; also called TI-44; ADI-19119
B9: T1-8 (antibody, IgG1, V domains shown)
VH: B8 VH with V50I, G100V, G102M, Y103T, D104A, E105A, M107L, T115M
VL: not shown
notes: huIgG1; also called TI-8; ADI-19074
B10: T1-10 (antibody, IgG1, V domains shown)
VH: B8 VH with V50I, Y103S, D104W, S106T, M107L, T115M
VL: not shown
notes: huIgG1; also called TI-10; ADI-19077
B11: T1-46 (antibody, IgG1, V domains shown)
VH: B8 VH
VL: not shown
notes: huIgG1; also called TI-46; ADI-19124
B12: T1-45 (antibody, IgG1, V domains shown)
VH: B8 VH
VL: not shown
notes: huIgG1; also called TI-45; ADI-19123
B13: T1-48 (antibody, IgG1, V domains shown)
VH: B8 VH with S54G, G100A, S101G, G102Q, Y103T, D104S, E105S, S106A, M107L, T115M
VL: not shown
notes: huIgG1; also called TI-48; ADI-19121
B14: T1-39 (antibody, IgG1, V domains shown)
VH: EVQLVESGGGLVKPGGSLRLSCAASGFTFSSYSMNWVRQAPGKGLEWVSSISSSSNYIYYADSVKGRFTISRDNAKNSLYLQMNSLRAEDTAVYYCARRGGSSSTGLLYWGQGTLVTVSS
VL: DIQLTQSPSSVSASVGDRVTITCRASQDISSWLAWYQQKPGKAPKLLIYAASSLQSGVPSRFSGSGSGTDFTLTISSLQPEDFATYYCQQSLTHPTFGGGTKVEIK
notes: huIgG1; also called TI-39; ADI-19113
B15: T1-18 (antibody, IgG1, V domains shown)
VH: EVQLVESGGGLVQPGRSLRLSCAASGFTFDDYAMHWVRQAPGKGLEWVSGISWNSGDIGYADSVKGRFTISRDNAKNTLYLQMNSLRAEDTALYYCAKGPRMVTHLDVWGQGTMVTVSS
VL: DIQMTQSPSTLSASVGDRVTITCRASQSISSWLAWYQQKPGKAPKLLIYKASSLESGVPSRFSGSGSGTEFTLTISSLQPDDFATYYCQQDSIYPITFGGGTKVEIK
notes: huIgG1; also called TI-18; ADI-19085
B16: T1-51 (antibody, IgG1, V domains shown)
VH: QVQLVQSGAEVKKPGSSVKVSCKASGGTFSSYAISWVRQAPGQGLEWMGSIIPIFGTANYAQKFQGRVTITADESTSTAYMELSSLRSEDTAVYYCARSGGYSSSWYGTGYDYWGQGTLVTVSS
VL: B15 VL with D91F, S92Q, I93S, I96F
notes: huIgG1; also called TI-51; ADI-19126
B17: T1-37 (antibody, IgG1, V domains shown)
VH: QVQLVESGGGVVQPGRSLRLSCAASGFTFSSYGMHWVRQAPGKGLEWVALIWYDGSNKYYADSVKGRFTISRDNSKNTLYLQMNSLRAEDTAVYYCAKGDYLDPLFDYWGQGTLVTVSS
VL: EIVMTQSPATLSVSPGERATLSCRASQSVSSNLAWYQQKPGQAPRLLIYGASTRATGIPARFSGSGSGTEFTLTISSLQSEDFAVYYCQQYAYWPLTFGGGTKVEIK
notes: huIgG1; also called TI-37; ADI-19111
B18: T1-58 (antibody, IgG1, V domains shown)
VH: QLQLQESGPGLVKPSETLSLTCTVSGGSISSSSYYWGWIRQPPGKGLEWIGSIYYSGSTYYNPSLKSRVTISVDTSKNQFSLKLSSVTAADTAVYYCARQEYGDGYFDLWGRGTLVTVSS
VL: not shown
notes: huIgG1; also called TI-58; ADI-19133
B19: T1-50 (antibody, IgG1, V domains shown)
VH: QVQLVQSGAEVKKPGASVKVSCKASGYTFTSYYMHWVRQAPGQGLEWMGIINPGGGSTSYAQKFQGRVTMTRDTSTSTVYMELSSLRSEDTAVYYCAREAGTMSSAFDIWGQGTMVTVSS
VL: not shown
notes: huIgG1; also called TI-50; ADI-19125
B20: T1-49 (antibody, IgG1, V domains shown)
VH: QVQLVQSGAEVKKPGASVKVSCKASGYTFTSYYMHWVRQAPGQGLEWMGIINPSGGSTSYAQKFQGRVTMTRDTSTSTVYMELSSLRSEDTAVYYCAREAGSWLISTAFDIWGQGTMVTVSS
VL: not shown
notes: huIgG1; also called TI-49; ADI-19122

biological target: T1, human TREM2 on BWZ cells (human, UniProt Q9NZC2 19-230); experiment: FACS, BWZ cells
T1 construct: whole, on cells; not tied to the cell line; also called BWZ Human TREM2
T1 sequence (looked up): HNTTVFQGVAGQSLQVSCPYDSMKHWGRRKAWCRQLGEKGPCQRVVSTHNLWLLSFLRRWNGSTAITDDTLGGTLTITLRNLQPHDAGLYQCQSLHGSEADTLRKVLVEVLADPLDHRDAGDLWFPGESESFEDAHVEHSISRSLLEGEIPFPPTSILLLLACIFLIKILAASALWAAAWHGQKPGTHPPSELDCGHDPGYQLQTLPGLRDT

Binding result, no binding:
B1
B2
B3
B4
B5
B6
B7
B8
B9
B10
B11
B12
B13
B14
B15
B16
B17
B18
B19

biological target: T2, mouse TREM2 on BWZ cells (mouse, UniProt Q99NH8 19-227); experiment: FACS, BWZ cells
T2 construct: whole, on cells; also called BWZ Mouse TREM2
T2 sequence (looked up): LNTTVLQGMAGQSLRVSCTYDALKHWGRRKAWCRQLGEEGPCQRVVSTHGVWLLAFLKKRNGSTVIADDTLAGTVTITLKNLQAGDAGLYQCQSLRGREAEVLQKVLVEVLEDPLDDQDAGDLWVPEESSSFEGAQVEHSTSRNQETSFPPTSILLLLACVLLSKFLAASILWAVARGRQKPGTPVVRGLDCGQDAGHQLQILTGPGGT

Binding result, no binding:
B1
B2
B3
B4
B20
B5
B6
B7
B8
B9
B10
B11
B12
B13
B14
B15
B16
B17
B19
